The source of these data is PMC3821034.

The experiment has as its target Phenylalanine hydroxylase from Legionella pneumophila (Legionella pneumophila) (UniProt Q5ZS72). Briefly: crystal structure.

One may read the stoichiometry N as the number of molecules, sites or subunits per partner or assembly. Regarding “Phenylalanine hydroxylase from Legionella pneumophila (from UniProt Q5ZS72 1-272) (enzyme)”, the stoichiometry N came to 2.
